Measurements published in US20200123233A1.

Columns and labels:
[1] = molecular target: FTM-NN (membrane anchorless form of the Long fusion protein, 70 kDa) (human respiratory syncytial virus, strain Long) (UniProt P12568)
[2] = molecular target: F protein of hRSV strain B-1 (human respiratory syncytial virus, strain B-1 (ATCC VR-1580)) (UniProt P13843); assay: cell-based or functional assay
[3] = molecular target: F protein of hRSV strain Long (human respiratory syncytial virus, strain Long (ATCC VR-26)) (UniProt P12568); assay: cell-based or functional assay
[4] = molecular target: FTM-NN (membrane anchorless form of the Long fusion protein, 70 kDa) (human respiratory syncytial virus, strain Long) (UniProt P12568); assay: SPR (Biacore), FTM-NN immobilised
[5] = molecular target: F protein of RSV A-2 (human respiratory syncytial virus, strain A-2) (UniProt P03420); assay: cell-based or functional assay
[6] = molecular target: F protein of RSV Long (RSV LONG M-2) (human respiratory syncytial virus, strain Long) (UniProt P12568); assay: cell-based or functional assay
[7] = molecular target: F protein of RSV B-1 (human respiratory syncytial virus, strain B-1) (UniProt P13843); assay: cell-based or functional assay

101F Fab (WO 06/050280)
IC50 [1]: 1.12 nM

Numax Fab (Motavizumab or MEDI-524; WO 06/050166)
IC50 [1]: 0.086 nM

Synagis (Palivizumab, MedImmune, humanized monoclonal antibody)
Neutralization IC50 (nM), B-1 (first assay) [2]: 2.1 nM
Neutralization IC50 (nM), B-1 (second assay) [2]: 2.9 nM
Neutralization IC50 (nM), Long (first assay) [3]: 7.3 nM
Neutralization IC50 (nM), Long (second assay) [3]: 6 nM

Synagis Fab
IC50 [1]: 0.597 nM

Synagis® (Palivizumab, MedImmune, humanized monoclonal antibody)
Kd [4]: 0.64 nM
koff [4]: 0.00018 s⁻¹
kon [4]: 280000 M⁻¹ s⁻¹
RSV neutralization IC50 (nM) (n = 2), A-2 [5]: 2.5 nM
RSV neutralization IC50 (nM) (n = 2), Long [6]: 4 nM
RSV neutralization IC50 (nM) (n = 2), B1 [7]: 1.7 nM
